This is an account of results in the supplement of paper PMC12783771.

B1: library; a variant is named by its letters at X, in order (parent)
chain: MNIQIGELAKRTACPVVTIRFYEQEGLLPPPGRSRGNFRLYGEEHVERLQFIRHCRSLDMPLSXVRTLLSYRKRPDQDCGEVXMLLDEHXRQVESRIGALLELXHXLVELREACSGARPAQSCGILQGLSDCVCDTRGTTAHXSD

Variants of B1 are the subject of data set [1]. The data set is described as follows: sfGFP reporter fluorescence (15 h) (µM FITC); higher = higher leak. Conditions: library round: Round 3b; ligand: none. How it is done:
(§1)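 Cell-free biosensing: 1 µL Echo-assembled CFE reactions with linear PbrR variant templates (5 nM) and pPbrR-sfGFP reporter, with 1 µM Pb, 30 µM Zn or no ligand; endpoint sfGFP fluorescence after 15 h at 30 °C calibrated as µM FITC. Round 3b rational combinatorial PbrR mutants; 3 biological replicates.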

In data set [2] the parent is B1. The data set is described as follows: sfGFP reporter fluorescence (15 h) (µM FITC); higher = stronger transcriptional activation. Conditions: library round: Round 3b. The protocol:
as §1

± gives the standard deviation of the averaged measurements.

In the case of MNIQIGELAKRTACPVVTIRFYEQEGLLPPPGRSRGNFRLYGEEHVERLQFIRHCRSLDMPLSKVRTLLSYRKRPDQDCGEVIMLLDEHARQVESRIGALLELKHALVELREACSGARPAQSCGILQGLSDCVCDTRGTTAHRSD [KIAKAR], the values for the sfGFP reporter fluorescence in data set [1], in data set [2] (ligand: 1 µM Pb) and in data set [2] (ligand: 30 µM Zn) were 0.0603 ± 0.0029, 0.794 ± 0.049 and 0.0642 ± 0.0027, respectively.

In the case of MNIQIGELAKRTACPVVTIRFYEQEGLLPPPGRSRGNFRLYGEEHVERLQFIRHCRSLDMPLSKVRTLLSYRKRPDQDCGEVIMLLDEHARQVESRIGALLELKHALVELREACSGARPAQSCGILQGLSDCVCDTRGTTAHTSD [KIAKAT], the values for the sfGFP reporter fluorescence in data set [1], in data set [2] (ligand: 1 µM Pb) and in data set [2] (ligand: 30 µM Zn) were 0.0563 ± 0.006, 0.675 ± 0.061 and 0.0628 ± 0.0018, respectively.

For the variant MNIQIGELAKRTACPVVTIRFYEQEGLLPPPGRSRGNFRLYGEEHVERLQFIRHCRSLDMPLSDVRTLLSYRKRPDQDCGEVIMLLDEHARQVESRIGALLELKHALVELREACSGARPAQSCGILQGLSDCVCDTRGTTAHRSD [DIAKAR], the figures for the sfGFP reporter fluorescence in data set [1], in data set [2] (ligand: 1 µM Pb) and in data set [2] (ligand: 30 µM Zn) were 0.0442 ± 0.0031, 0.0673 ± 0.0063 and 0.045 ± 0.0015, respectively.

Consider MNIQIGELAKRTACPVVTIRFYEQEGLLPPPGRSRGNFRLYGEEHVERLQFIRHCRSLDMPLSDVRTLLSYRKRPDQDCGEVIMLLDEHARQVESRIGALLELKHALVELREACSGARPAQSCGILQGLSDCVCDTRGTTAHTSD [DIAKAT], for which the results for the sfGFP reporter fluorescence in data set [1], in data set [2] (ligand: 1 µM Pb) and in data set [2] (ligand: 30 µM Zn) were 0.0356 ± 0.0029, 0.0683 ± 0.0046 and 0.0346, respectively.

MNIQIGELAKRTACPVVTIRFYEQEGLLPPPGRSRGNFRLYGEEHVERLQFIRHCRSLDMPLSKVRTLLSYRKRPDQDCGEVIMLLDEHARQVESRIGALLELKHHLVELREACSGARPAQSCGILQGLSDCVCDTRGTTAHTSD [KIAKHT]: the results for the sfGFP reporter fluorescence in data set [1], in data set [2] (ligand: 1 µM Pb) and in data set [2] (ligand: 30 µM Zn) were 0.0693 ± 0.0034, 0.93 ± 0.043 and 0.152 ± 0.011, respectively.

On to MNIQIGELAKRTACPVVTIRFYEQEGLLPPPGRSRGNFRLYGEEHVERLQFIRHCRSLDMPLSKVRTLLSYRKRPDQDCGEVIMLLDEHARQVESRIGALLELKHHLVELREACSGARPAQSCGILQGLSDCVCDTRGTTAHRSD [KIAKHR], for which the sfGFP reporter fluorescence was 0.072 ± 0.002 in data set [1], 1.07 ± 0.074 in data set [2] (ligand: 1 µM Pb) and 0.135 ± 0.017 in data set [2] (ligand: 30 µM Zn).

For MNIQIGELAKRTACPVVTIRFYEQEGLLPPPGRSRGNFRLYGEEHVERLQFIRHCRSLDMPLSDVRTLLSYRKRPDQDCGEVIMLLDEHARQVESRIGALLELKHELVELREACSGARPAQSCGILQGLSDCVCDTRGTTAHTSD [DIAKET], the results for the sfGFP reporter fluorescence in data set [1], in data set [2] (ligand: 1 µM Pb) and in data set [2] (ligand: 30 µM Zn) were 0.0419 ± 0.00078, 0.0472 ± 0.0015 and 0.0466 ± 0.0026, respectively.

Take MNIQIGELAKRTACPVVTIRFYEQEGLLPPPGRSRGNFRLYGEEHVERLQFIRHCRSLDMPLSDVRTLLSYRKRPDQDCGEVIMLLDEHARQVESRIGALLELKHELVELREACSGARPAQSCGILQGLSDCVCDTRGTTAHRSD [DIAKER]: the values for the sfGFP reporter fluorescence in data set [1], in data set [2] (ligand: 1 µM Pb) and in data set [2] (ligand: 30 µM Zn) were 0.0433 ± 0.0047, 0.0512 ± 0.0021 and 0.0452 ± 0.0035, respectively.

For the variant MNIQIGELAKRTACPVVTIRFYEQEGLLPPPGRSRGNFRLYGEEHVERLQFIRHCRSLDMPLSKVRTLLSYRKRPDQDCGEVIMLLDEHARQVESRIGALLELKHELVELREACSGARPAQSCGILQGLSDCVCDTRGTTAHPSD [KIAKEP], the sfGFP reporter fluorescence in data set [1] stood at 0.052 ± 0.0034; in data set [2] (ligand: 1 µM Pb) it was 0.387 ± 0.02; in data set [2] (ligand: 30 µM Zn), 0.051 ± 0.0007.

Consider MNIQIGELAKRTACPVVTIRFYEQEGLLPPPGRSRGNFRLYGEEHVERLQFIRHCRSLDMPLSKVRTLLSYRKRPDQDCGEVIMLLDEHARQVESRIGALLELKHELVELREACSGARPAQSCGILQGLSDCVCDTRGTTAHTSD [KIAKET], for which the figures for the sfGFP reporter fluorescence in data set [1], in data set [2] (ligand: 1 µM Pb) and in data set [2] (ligand: 30 µM Zn) were 0.0531 ± 0.0032, 0.4674 ± 0.0044 and 0.057 ± 0.0063, respectively.

Consider MNIQIGELAKRTACPVVTIRFYEQEGLLPPPGRSRGNFRLYGEEHVERLQFIRHCRSLDMPLSKVRTLLSYRKRPDQDCGEVIMLLDEHARQVESRIGALLELKHELVELREACSGARPAQSCGILQGLSDCVCDTRGTTAHRSD [KIAKER], for which the sfGFP reporter fluorescence stood at 0.0554 ± 0.0012 in data set [1], 0.614 ± 0.024 in data set [2] (ligand: 1 µM Pb) and 0.0592 ± 0.0041 in data set [2] (ligand: 30 µM Zn).

Turning to MNIQIGELAKRTACPVVTIRFYEQEGLLPPPGRSRGNFRLYGEEHVERLQFIRHCRSLDMPLSKVRTLLSYRKRPDQDCGEVIMLLDEHARQVESRIGALLELTHALVELREACSGARPAQSCGILQGLSDCVCDTRGTTAHPSD [KIATAP], the sfGFP reporter fluorescence in data set [1] is 0.0703 ± 0.0043; in data set [2] (ligand: 1 µM Pb), 1.26 ± 0.096; in data set [2] (ligand: 30 µM Zn) it was 0.0679 ± 0.006.

Consider MNIQIGELAKRTACPVVTIRFYEQEGLLPPPGRSRGNFRLYGEEHVERLQFIRHCRSLDMPLSDVRTLLSYRKRPDQDCGEVIMLLDEHARQVESRIGALLELTHALVELREACSGARPAQSCGILQGLSDCVCDTRGTTAHPSD [DIATAP], for which the results for the sfGFP reporter fluorescence in data set [1], in data set [2] (ligand: 1 µM Pb) and in data set [2] (ligand: 30 µM Zn) were 0.0413 ± 0.0051, 0.087 ± 0.01 and 0.0433 ± 0.0057, respectively.

Turning to MNIQIGELAKRTACPVVTIRFYEQEGLLPPPGRSRGNFRLYGEEHVERLQFIRHCRSLDMPLSDVRTLLSYRKRPDQDCGEVIMLLDEHARQVESRIGALLELTHALVELREACSGARPAQSCGILQGLSDCVCDTRGTTAHRSD [DIATAR], the results for the sfGFP reporter fluorescence in data set [1], in data set [2] (ligand: 1 µM Pb) and in data set [2] (ligand: 30 µM Zn) were 0.0427 ± 0.0029, 0.0781 ± 0.014 and 0.0423 ± 0.0034, respectively.
